Measured values published in the RNAGym collection of RNA variant scans (doi:10.1093/molbev/msab373).

B1: Azoarcus group I ribozyme (parent)
chain: GUGCCUUGCGCCGGGAAACCACGCAAGGGAUGGUGUCAAAUUCGGCGAAACCUAAGCGCCCGCCCGGGCGUAUGGCAACGCCGAGCCAAGCUUCGGCGCCUGCGCCGAUGAAGGUGUAGAGACUAGACGGCACCCACCUAAGGCAAACGCUAUGGUGAAGGCAUAGUCCAGGGAGUGGCGAAAGUCACACAAACCGG

Variants of: B1
Assay: reverse-splicing fitness (ratio to wild type); higher = more active; in vitro selection; Mg2+ level not given
Outline: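 An in vitro group I ribozyme library with randomized positions was T7-transcribed and gel-purified. In triplicate, 10 pmol RNA in EPPS pH 7.5 was reacted with 50 pmoles of a 30-nt RNA substrate for 1 h at 37 °C across several added MgCl2 levels (1–48 mM), then stopped with EDTA. Products were reverse transcribed from a substrate-complementary primer, PCR-amplified and sequenced (HiSeq 4000). Fitness is a variant's read proportion after selection over that before, normalised to wild type.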

Variant	reverse-splicing fitness
GUGCCUUGCGCCGGGAAACCACGCAAGGGAUGGUGUCAAAUUCGGCGAAACCUAAGCGCCCGCCCGGGCGUAUGGCAACGCGGAGCCAAGCUUCGGCGCCUGCGCCGAUGGAGGUGUAGCGACUAGACGGCACCCACCUAAGGCAAACGAUAUGGUGAAGGCAUAGUCAAGGGAGAGGCGAAAGUCACACAAACCGG [C82G A111G A120C C150A C169A U176A]	0.0223
GUGCCUUGCGCCGGGAAACCACGCAAGGGAUGGUGUCAAAUUCGGCGAAACCUAAGCGCCCGCCCGGGCGUAUGGCAACGCGGAGCCAAGCUUCGGCGCCUGCGCCGAUGGAGGUGUAGCGACUAGACGGCACCCACCUAAGGCAAACGAUAUGGUGAAGGCAUAGUCCAGGGAGCGGCGAAAGUCACACAAACCGG [C82G A111G A120C C150A U176C]	0.0277
GUGCCUUGCGCCGGGAAACCACGCAAGGGAUGGUGUCAAAUUCGGCGAAACCUAAGCGCCCGCCCGGGCGUAUGGCAACGCGGAGCCAAGCUUCGGCGCCUGCGCCGAUGGAGGUGUAGCGACUAGACGGCACCCACCUAAGGCAAACGAUAUGGUGAAGGCAUAGUCCAGGGAGGGGCGAAAGUCACACAAACCGG [C82G A111G A120C C150A U176G]	0.0141
GUGCCUUGCGCCGGGAAACCACGCAAGGGAUGGUGUCAAAUUCGGCGAAACCUAAGCGCCCGCCCGGGCGUAUGGCAACGCGGAGCCAAGCUUCGGCGCCUGCGCCGAUGGAGGUGUAGCGACUAGACGGCACCCACCUAAGGCAAACGAUAUGGUGAAGGCAUAGUCCAGGGAGAGGCGAAAGUCACACAAACCGG [C82G A111G A120C C150A U176A]	0.014
GUGCCUUGCGCCGGGAAACCACGCAAGGGAUGGUGUCAAAUUCGGCGAAACCUAAGCGCCCGCCCGGGCGUAUGGCAACGCGGAGCCAAGCUUCGGCGCCUGCGCCGAUGGAGGUGUAGCGACUAGACGGCACCCACCUAAGGCAAACGAUAUGGUGAAGGCAUAGUCGAGGGAGUGGCGAAAGUCACACAAACCGG [C82G A111G A120C C150A C169G]	0.00943
GUGCCUUGCGCCGGGAAACCACGCAAGGGAUGGUGUCAAAUUCGGCGAAACCUAAGCGCCCGCCCGGGCGUAUGGCAACGCGGAGCCAAGCUUCGGCGCCUGCGCCGAUGGAGGUGUAGCGACUAGACGGCACCCACCUAAGGCAAACGAUAUGGUGAAGGCAUAGUCAAGGGAGUGGCGAAAGUCACACAAACCGG [C82G A111G A120C C150A C169A]	0.0106
GUGCCUUGCGCCGGGAAACCACGCAAGGGAUGGUGUCAAAUUCGGCGAAACCUAAGCGCCCGCCCGGGCGUAUGGCAACGCGGAGCCAAGCUUCGGCGCCUGCGCCGAUGGAGGUGUAGCGACUAGACGGCACCCACCUAAGGCAAACGAUAUGGUGAAGGCAUAGUCUAGGGAGUGGCGAAAGUCACACAAACCGG [C82G A111G A120C C150A C169U]	0.0123
GUGCCUUGCGCCGGGAAACCACGCAAGGGAUGGUGUCAAAUUCGGCGAAACCUAAGCGCCCGCCCGGGCGUAUGGCAACGCGGAGCCAAGCUUCGGCGCCUGCGCCGAUGGAGGUGUAGCGACUAGACGGCACCCACCUAAGGCAAACGAUAUGGUGAAGGCAUAGUCUAGGGAGAGGCGAAAGUCACACAAACCGG [C82G A111G A120C C150A C169U U176A]	0.0165
GUGCCUUGCGCCGGGAAACCACGCAAGGGAUGGUGUCAAAUUCGGCGAAACCUAAGCGCCCGCCCGGGCGUAUGGCAACGCGGAGCCAAGCUUCGGCGCCUGCGCCGAUGGAGGUGUAGCGACUAGACGGCACCCACCUAAGGCAAACGAUAUGGUGAAGGCAUAGUCUAGGGAGCGGCGAAAGUCACACAAACCGG [C82G A111G A120C C150A C169U U176C]	0.0175
GUGCCUUGCGCCGGGAAACCACGCAAGGGAUGGUGUCAAAUUCGGCGAAACCUAAGCGCCCGCCCGGGCGUAUGGCAACGCGGAGCCAAGCUUCGGCGCCUGCGCCGAUGGAGGUGUAGCGACUAGACGGCACCCACCUAAGGCAAACGAUAUGGUGAAGGCAUAGUCUAGGGAGGGGCGAAAGUCACACAAACCGG [C82G A111G A120C C150A C169U U176G]	0.00877
GUGCCUUGCGCCGGGAAACCACGCAAGGGAUGGUGUCAAAUUCGGCGAAACCUAAGCGCCCGCCCGGGCGUAUGGCAACGCGGAGCCAAGCUUCGGCGCCUGCGCCGAUGGAGGUGUAGCGACUAGACGGCACCCACCUAAGGCAAACGGUAUGGUGAAGGCAUAGUCCAGGGAGUGGCGAAAGUCACACAAACCGG [C82G A111G A120C C150G]	0.0105
GUGCCUUGCGCCGGGAAACCACGCAAGGGAUGGUGUCAAAUUCGGCGAAACCUAAGCGCCCGCCCGGGCGUAUGGCAACGCGGAGCCAAGCUUCGGCGCCUGCGCCGAUGGAGGUGUAGCGACUAGACGGCACCCACCUAAGGCAAACGAUAUGGUGAAGGCAUAGUCCAGGGAGUGGCGAAAGUCACACAAACCGG [C82G A111G A120C C150A]	0.0154
GUGCCUUGCGCCGGGAAACCACGCAAGGGAUGGUGUCAAAUUCGGCGAAACCUAAGCGCCCGCCCGGGCGUAUGGCAACGCGGAGCCAAGCUUCGGCGCCUGCGCCGAUGGAGGUGUAGCGACUAGACGGCACCCACCUAAGGCAAACGAUAUGGUGAAGGCAUAGUCGAGGGAGGGGCGAAAGUCACACAAACCGG [C82G A111G A120C C150A C169G U176G]	0.00655
GUGCCUUGCGCCGGGAAACCACGCAAGGGAUGGUGUCAAAUUCGGCGAAACCUAAGCGCCCGCCCGGGCGUAUGGCAACGCGGAGCCAAGCUUCGGCGCCUGCGCCGAUGGAGGUGUAGCGACUAGACGGCACCCACCUAAGGCAAACGAUAUGGUGAAGGCAUAGUCGAGGGAGAGGCGAAAGUCACACAAACCGG [C82G A111G A120C C150A C169G U176A]	0.0218
GUGCCUUGCGCCGGGAAACCACGCAAGGGAUGGUGUCAAAUUCGGCGAAACCUAAGCGCCCGCCCGGGCGUAUGGCAACGCGGAGCCAAGCUUCGGCGCCUGCGCCGAUGGAGGUGUAGCGACUAGACGGCACCCACCUAAGGCAAACGAUAUGGUGAAGGCAUAGUCGAGGGAGCGGCGAAAGUCACACAAACCGG [C82G A111G A120C C150A C169G U176C]	0.0218
